Experimental findings from article PMC9664404, “DNA-mediated proteolysis by neutrophil elastase enhances binding activities of the HMGB1 protein” (The Journal of Biological Chemistry, 2022) are described below.

For data set [1], the target named is T1, TLR4•MD-2 complex (UniProt O00206 24-631; Q9Y6Y9 19-160).
T1 construct: toll-like receptor 4 (TLR4) of the bought TLR4•MD-2 complex; MD-2 of the bought TLR4•MD-2 complex; also called toll-like receptor 4 • MD-2 complex; source: bought: R&D Systems (catalog no. 3146-TM-050), lyophilized
T1 sequence (O00206 24-631, chain 1 of 2): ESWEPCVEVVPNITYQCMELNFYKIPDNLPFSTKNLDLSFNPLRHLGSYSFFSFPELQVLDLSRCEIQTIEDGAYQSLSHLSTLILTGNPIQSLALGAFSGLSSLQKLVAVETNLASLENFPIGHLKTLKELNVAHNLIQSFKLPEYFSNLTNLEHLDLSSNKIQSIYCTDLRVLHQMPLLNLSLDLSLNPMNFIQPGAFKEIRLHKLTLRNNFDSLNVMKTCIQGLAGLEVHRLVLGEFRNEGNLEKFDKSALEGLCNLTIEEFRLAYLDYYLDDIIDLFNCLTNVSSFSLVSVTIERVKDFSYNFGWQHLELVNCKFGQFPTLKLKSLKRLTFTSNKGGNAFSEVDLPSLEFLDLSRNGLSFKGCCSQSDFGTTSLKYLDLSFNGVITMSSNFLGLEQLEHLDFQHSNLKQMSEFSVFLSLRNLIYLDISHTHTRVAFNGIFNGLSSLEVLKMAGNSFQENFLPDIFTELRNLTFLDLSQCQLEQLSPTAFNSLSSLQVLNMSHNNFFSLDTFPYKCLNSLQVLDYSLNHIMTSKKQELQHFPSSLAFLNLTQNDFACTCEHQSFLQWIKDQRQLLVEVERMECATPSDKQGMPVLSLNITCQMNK
T1 sequence (Q9Y6Y9 19-160, chain 2 of 2): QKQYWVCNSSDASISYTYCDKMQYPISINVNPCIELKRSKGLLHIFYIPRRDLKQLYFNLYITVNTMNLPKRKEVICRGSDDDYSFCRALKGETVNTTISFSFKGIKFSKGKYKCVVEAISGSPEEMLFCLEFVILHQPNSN
The data set is described as follows: SPR; TLR4•MD-2 complex immobilised on a CM5 chip by amine coupling (1200 RU); HMGB1 proteins injected at 30 μl/min, 25 °C; 10 mM Hepes (pH 7.4), 150 mM NaCl, 3 mM EDTA, 0.005% v/v Tween-20; 1:1 binding model; Biacore T-100; three independent experiments. The conditions noted are these: both partners purified. (SPR reads the build-up and loss of mass on a sensor chip optically.)

Data set [2] deals with T2, HMGB1 full-length (disulfide form) (UniProt P09429 1-215). The data set is described as follows: fluorescence anisotropy; 150 mM NaCl; value only in figure; affinity lower than Δ39; 10 mM potassium phosphate pH 7.4, 200 mM NaCl (32G) or 150 mM NaCl (J1), 4 nM FAM-DNA, 25 °C. The following applies: protein: recombinant; label: 5'-FAM on J1A; four-way junction of 4 x 16-mer strands. (In general: Polarisation of emitted light reports the rotation of a fluorescent probe.)

The target of data set [3] is T3, HMGB1 Δ39 (disulfide form) (UniProt P09429 1-176, del177-215). The data set can be described thus: fluorescence anisotropy; 150 mM NaCl; value only in figure; affinity higher than full-length; 10 mM potassium phosphate pH 7.4, 200 mM NaCl (32G) or 150 mM NaCl (J1), 4 nM FAM-DNA, 25 °C. The conditions noted are these: protein: recombinant; label: 5'-FAM on J1A; four-way junction of 4 x 16-mer strands.

Data set [4] deals with HMGB1 Δ40 (disulfide form) (UniProt P09429 1-175, del176-215). The data set is described as follows: fluorescence anisotropy; 200 mM NaCl; value only in figure; as strong as Δ39; 10 mM potassium phosphate pH 7.4, 200 mM NaCl (32G) or 150 mM NaCl (J1), 4 nM FAM-DNA, 25 °C. The following applies: protein: recombinant; label: 5'-FAM; G-quadruplex.
In data set [5] the target is HMGB1 Δ44 (disulfide form) (UniProt P09429 1-171, del172-215). The description is as above. The following applies: protein: recombinant; label: 5'-FAM; G-quadruplex.
The target in data set [6] is T2, HMGB1 full-length (disulfide form). The data set is described as follows: fluorescence anisotropy; 200 mM NaCl; value only in figure; affinity lower than Δ39; 10 mM potassium phosphate pH 7.4, 200 mM NaCl (32G) or 150 mM NaCl (J1), 4 nM FAM-DNA, 25 °C. The conditions noted are these: protein: recombinant; label: 5'-FAM; G-quadruplex.
Data set [7] addresses T3, HMGB1 Δ39 (disulfide form). The data set is described as follows: fluorescence anisotropy; 200 mM NaCl; value only in figure; affinity higher than full-length; 10 mM potassium phosphate pH 7.4, 200 mM NaCl (32G) or 150 mM NaCl (J1), 4 nM FAM-DNA, 25 °C. The conditions noted are these: protein: recombinant; label: 5'-FAM; G-quadruplex.

B1: Δ39 variant of disulfide HMGB1 (lacks the C-terminal 39 residues) (domain or fragment, UniProt P09429 1-176, looked up)
chain: MGKGDPKKPRGKMSSYAFFVQTCREEHKKKHPDASVNFSEFSKKCSERWKTMSAKEKGKFEDMAKADKARYEREMKTYIPPKGETKKKFKDPNAPKRPPSAFFLFCSEYRPKIKGEHPGLSIGDVAKKLGEMWNNTAADDKQPYEKKAAKLKEKYEKDIAAYRAKGKPDAAKKGVV
modifications: disulfide bond between Cys23 and Cys45
notes: HMGB1 of GenBank CAG33144.1 with a stop codon at K177; lacks residues 177-215, ends at V176; also called Δ39 product; source: E. coli BL21(DE3), purified (SP-FF cation exchange, Resource S cation exchange, Sephacryl S-100 HR SEC)
In turn, B1 had a Kd in data set [1] of 25 nM.

B2: Holliday junction J1 (J1A/J1B/J1C/J1D) (structured_DNA)
DNA 1: CGCAATCCTGAGCACG
DNA 2: CGTGCTCACCGAATGC
DNA 3: GCATTCGGACTATGGC
DNA 4: GCCATAGTGGATTGCG
On to B2, for which the binding result in data set [2] and in data set [3] was “binds” each time.

B3: FAM-32G G-quadruplex (structured_DNA)
DNA: AGGGCGGTGTGGGAAGAGGGAAGAGGGGGAGG
As for B3, the binding result in data set [4], in data set [5], in data set [6] and in data set [7] was “binds” each time.

B4: full-length (FL) disulfide HMGB1 protein (high-mobility-group-box-1, oxidized) (natural protein, UniProt P09429 1-215, looked up)
chain: MGKGDPKKPRGKMSSYAFFVQTCREEHKKKHPDASVNFSEFSKKCSERWKTMSAKEKGKFEDMAKADKARYEREMKTYIPPKGETKKKFKDPNAPKRPPSAFFLFCSEYRPKIKGEHPGLSIGDVAKKLGEMWNNTAADDKQPYEKKAAKLKEKYEKDIAAYRAKGKPDAAKKGVVKAEKSKKKKEEEEDEEDEEDEEEEEDEEDEDEEEDDDDE
modifications: disulfide bond between Cys23 and Cys45
notes: 215 residues (D/E repeats are residues 186-215); also called FL HMGB1; intact disulfide HMGB1; source: E. coli BL21(DE3), purified (SP-FF cation exchange, Resource-Q anion exchange, Sephacryl S-100 HR SEC)
Molecule B4 returned an equilibrium dissociation constant (Kd) in data set [1] of 367 nM.

By Kd is commonly meant the free concentration of one partner at which half of the binding sites on the other are occupied at equilibrium, for simple one-to-one binding. A lower Kd goes with a tighter complex.
